Measurements published in US20250213704A1, “METHOD OF TREATING A CANCER WITH A MULTIVALENT PEPTIDE CONJUGATE” (Valitor, Inc, priority 2022, published 2025).

How the values were obtained:
Human VEGF 165 [1] = target: T1, Human VEGF 165 (human, UniProt P15692-4 27-191, Avi tag (as printed under Tags); the tag's sequence and place are not given); assay: BLI (Gator), Avi-tagged human VEGF 165 on the probe, conjugate as analyte, 1:1 global fit; 90.5 kDa CMC, valency 9, 48.41 percent unconjugated peptide
T1 construct: Bought reagent loaded on the BLI probes as ligand; VEGF165 is one isoform of it; also called BLI ligand, Avi tag, R&D Systems AVI-293-050
Procedure: (§1) Either one or two probes per sample (one for kinetic assay and one for ligand free control if used) were equilibrated in 250 μL BLI buffer (PBS pH 7.4, 0.2% Tween and 0.2% BSA filtered at 0.2 μm) for at minimum 10 min in a Gator Bio Max plate. Ligands were diluted to a fixed concentration of 25-100 nM based on performance in pilot reactions in BLI buffer. Analytes were prepared at the top concentration determined in pilot reactions in BLI buffer and serially diluted 1:3 two to five more times using BLI buffer (Table 3). Black flat-bottom non-coated 96 well plates (Greiner Bio One Cat #655209 or similar) were loaded column-wise with 200 μL of ligand, analyte dilutions and one column of BLI buffer for each column of ligand and analyte. One well in each column of analyte was BLI buffer to be used as a blank for reference subtraction. The sample plate was placed in the Gator on a tilted platform set to 25° C. […] Next, the kinetic reads were started using the step parameters. If a ligand-free control was conducted, when kinetic reads were complete with ligand-loaded probes, the ligand free control was run using new probes that were not loaded with the ligand. The same kinetic assay timing and same sample wells were used that were analyzed with ligand loaded probes.
(§2) When kinetic assay was complete, data was analyzed using the Gator software. […]

Human VEGF 165 [2] = target: T1, Human VEGF 165; assay: BLI (Gator), Avi-tagged human VEGF 165 on the probe, conjugate as analyte, 1:1 global fit; 250 kDa CMC, valency 21, 44.37 percent unconjugated peptide
Procedure: as §1, §2

[3] = tested on: SK-MEL-28 melanoma tumors; assay: Intratumoral pharmacokinetics, in vivo imaging of Sulfo-Cy7 tagged protein after IT injection, tumor type 1; design: species or system athymic nude mice
Procedure: FIG. 2A-2C show results of intra-tumoral administration in xenografts in mice. […] The intra-tumoral half-lives were calculated using exponential decay fits of region of interest (ROI) radiant efficiency of infrared-tagged treatment peptides over 168 hours. […] The intra-tumoral half-lives were calculated using exponential decay fits of ROI radiant efficiency of infrared-tagged treatment peptides over 264 hours.
Mouse tumor models for evaluating the clearance rate of proteins from solid tumors were used to measure the intratumoral (IT) half-life of MVPs to maximize the parameters for tumor retention. Antibodies tagged using the amine-reactive Sulfo-Cy7 NHS ester (Broadpharm Cat #BP-22541) near-infrared fluorophore by the following method were used. This method was conducted under aseptic conditions. First, the dye was dissolved DMSO at 10 mg/mL concentration. Then, the protein at 5.0-10.0 mg/mL concentration was mixed with 0.1 M sodium bicarbonate at a 3:2 vol:vol ratio. Lastly, the fluorophore was added at a 1:2 protein:fluorophore molar ratio, mixed well, and incubated at room temperature for one hour on a neutator protected from the light by covering with foil. The NHS esters were quenched by adding 1.5 M Tris buffer pH 8.5 at 10% of the reaction volume and mixed on a neutator for another 10 minutes. The tagged protein was purified away from the unreacted fluorophore using a NAP-10 desalting column (illustra Cat #17-0854-01) that was equilibrated with PBS pH 7.0+0.01% Tween-20 according to the manufacturer's directions. The protein concentration and degree of Cy7 labeling was determined by the absorbance at 280 and 750 nm. […]
Tumors were established by injecting 3×10^6 SK-MEL-28 cells mixed 1:1 with Matrigel (Corning Cat #354234) in a 0.1 mL volume subcutaneously into the right flank of 8 week old athymic nude mice (Table 6). The tumor size was monitored until it reached a size of […]. […] When the study concluded, the half-life of each treatment was determined following injection using exponential decay calculations for optical in vivo imaging (Table 7).

[4] = tested on: MDA-MB-231 breast cancer tumors; design: species or system nude mice; settings: mouse, in vivo

T1 sequence (P15692 other isoform, or with tags, fused parts or gaps limits assumed): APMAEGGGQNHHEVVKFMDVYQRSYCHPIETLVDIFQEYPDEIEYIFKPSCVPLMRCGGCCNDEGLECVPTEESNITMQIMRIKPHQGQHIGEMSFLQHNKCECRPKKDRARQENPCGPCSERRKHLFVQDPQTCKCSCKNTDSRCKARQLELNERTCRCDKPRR

B1: Conjugate 114: Anti-VEGF VHH (SEQ ID NO: 8) conjugated to 90.5 kDa CMC, valency 9 (other)
VHH: MQVQLVESGGGLVQPGGSLRLSCAASGFAYSTYSMGWFRQAPGKEREAVATINSGTFRLWYTDSVKGRFTISRDNSKNTLYLQMNSLRPEDTAVYYCAARAWSPYSSTVDAGDFRYWGQGTLVTVSSAEAAAKEAAAKEAAAKAGC
modifications: C-terminal Cys thiol linked through a hydrazide-PEG2-maleimide linker to 90.5 kDa carboxymethyl cellulose
notes: Multivalent peptide-polymer conjugate; valency 9 is the mean molar ratio of peptide to polymer; also called anti-VEGF MVP
Human VEGF 165 [1]
  Kd: 966 pM

B2: Conjugate 115: Anti-VEGF VHH (SEQ ID NO: 8) conjugated to 250 kDa CMC, valency 21 (other)
VHH: B1 VHH
modifications: C-terminal Cys thiol linked through a hydrazide-PEG2-maleimide linker to 250 kDa carboxymethyl cellulose
notes: Multivalent peptide-polymer conjugate; valency 21 is the mean molar ratio of peptide to polymer; also called anti-VEGF MVP
Human VEGF 165 [2]
  Kd: 583 pM

B3: Conjugate 110: Anti-VEGF DARPin (SEQ ID NO: 1) conjugated to 700 kDa CMC, MP2H linker, valency 20 (conjugate)
chain: SNAGSDLDKKLLEAARAGQDDEVRILMANGADVNARDSTGWTPLHLAAPWGHPEIVEVLLKNGADVNAADFQGWTPLHLAAAVGHLEIVEVLLKYGADVNAQDKFGKTAFDISIDNGNEDLAEILQKAAGGGSGGGSC
modifications: conjugated to 700 kDa CMC via MP2H linker; aVEGF_Gly_Cys DARPin
[3]; mouse, in vivo
  IT half-life compared with unconjugated anti-VEGF DARPin and other conjugate (in words): longer than that of the unconjugated anti-VEGF DARPin or the peptide conjugated to a 90 kDa CMC
  Intratumoral t1/2: 48.7 ± 24.7 h

B4: Conjugate 101: Anti-VEGF DARPin (SEQ ID NO: 1) conjugated to 700 kDa CMC, MP2H linker, valency 13 (conjugate)
chain: B3 chain
modifications: conjugated to 700 kDa CMC via MP2H linker; aVEGF_Gly_Cys DARPin
[4]
  IT half-life compared with unconjugated anti-VEGF DARPin and other conjugate (in words): longer than that of the unconjugated anti-VEGF DARPin or the peptide conjugated to a 830 kDa hyaluronic acid (HyA)
  Intratumoral t1/2: 101.2 ± 34.9 h

B5: Conjugate 111: Anti-VEGF DARPin (SEQ ID NO: 1) conjugated to 90 kDa CMC, EMCH linker, valency 34 (conjugate)
chain: B3 chain
modifications: 90 kDa CMC via EMCH linker; aVEGF_Gly_Cys DARPin
[3]; Tumor type 1 (SK-MEL-28 melanoma xenograft), 40 μL IT injection, exponential decay fit of ROI radiant efficiency over 168 hours
  Intratumoral t1/2: 18.0 ± 3.4 h

B6: Unconjugated: Unconjugated Sulfo-Cy7 tagged anti-VEGF DARPin (SEQ ID NO: 1), comparator for the conjugates (protein)
chain: B3 chain
modifications: Sulfo-Cy7 label; aVEGF_Gly_Cys DARPin
[4]
  Intratumoral t1/2: 15.1 ± 9.8 h

B7: Conjugate 109: Anti-VEGF DARPin (SEQ ID NO: 1) conjugated to 830 kDa HyA, MP2H linker, valency 34 (conjugate)
chain: B3 chain
modifications: conjugated to 830 kDa HyA via MP2H linker; aVEGF_Gly_Cys DARPin
[4]
  Intratumoral t1/2: 20.5 ± 7.0 h
